Test results taken from the supplement of paper PMC7877785.
± gives the uncertainty stated by the source.

Assay: self-splicing fitness, log relative to wild type (ln ratio); higher = more splicing; Tetrahymena group I intron in knt gene, E. coli kanamycin selection, DiMSum; sequences stand for … in CUCUCU…GGAGGGAAAAGUUAUCAGGCAUGCACCUGGUAGCUAGUCUUUAAACCAAUAGAUUGCAUCGGUUUAAAAGGCAAGACCGUCAAAUUGCGGGAAAGGGGUCAACAGCCGUUCAGUACCAAGUCUCAGGGGAAACUUUGAGAUGGCCUUGCAAAGGGUAUGGUAAUAAGCUGACGGACAUGGUCCUAACCACGCAGCCAAGUCCUAAGUCAACAGAUCUUCUGUUGAUAUGGAUGCAGUUCACAGACUAAAUGUCGGUCGGGGAAGAUGUAUUCUUCUCAUAAGAUAUAGUCGGACCUCUCCUUAAUGGGAGCUAGCGGAUGAAGUGAUGCAACACUGGAGCCGCUGGGAACUAAUUUGUAUGCGAAAGUAUAUUGAUUAGUUUUGGAGUACUCGUGGUCG
Procedure, shortened: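 Pooled colonies went to amplicon sequencing on an Illumina HiSeq 2500 after six replicate transformations. The plates were LB agar with 100 μg/mL carbenicillin, 50 μM IPTG and 0.2% rhamnose, with or without 25 μg/mL kanamycin, incubated overnight at 37°C or 30°C. The E. coli BL21(DE3) library had all eight P1ex-region intron nucleotides randomised, the intron placed in the knt kanamycin-resistance gene on pET-22b(+). DiMSum fitness is the error-weighted combination of replicate fold changes, kanamycin against none, normalised to wild type.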

Sequence | self-splicing fitness (ln) (30 °C) | self-splicing fitness (ln) (37 °C)
ACGCAGCAAUAUUACGGCUU | -0.345 ± 0.046 | -0.227 ± 0.057
UCCAAGCAAUAUUACGAAAG | -2.45 ± 0.19 | -3.23 ± 0.35
GCUCAGCAAUAUUACGGACA | -1.25 ± 0.14 | -0.983 ± 0.13
GUCGAGCAAUAUUACGGAGG | -3.76 ± 0.39 | -2.17 ± 0.23
GGUAAGCAAUAUUACGCGAC | -2.04 ± 0.16 | -1.19 ± 0.2
UUCAAGCAAUAUUACGAUGU | -2.21 ± 0.13 | -1.31 ± 0.16
UGAUAGCAAUAUUACGGGAG | -3.64 ± 0.29 | -2.19 ± 0.21
GGGCAGCAAUAUUACGUCAC | – | -1.18 ± 0.42
CGUGAGCAAUAUUACGGCUU | -3.31 ± 0.18 | -3.81 ± 0.33
GUUAAGCAAUAUUACGCGUG | -0.781 ± 0.1 | -0.78 ± 0.099
GGCGAGCAAUAUUACGGCAC | -1.36 ± 0.13 | -0.093 ± 0.14
AUCCAGCAAUAUUACGGUAA | -1.02 ± 0.076 | -0.567 ± 0.073
AGAAAGCAAUAUUACGGUUG | -3.65 ± 0.17 | -1.78 ± 0.16
GGAUAGCAAUAUUACGGAUA | – | -1.56 ± 0.26
GAGCAGCAAUAUUACGCAAC | -2.85 ± 0.28 | -2.22 ± 0.45
CUGUAGCAAUAUUACGACCA | -1.45 ± 0.38 | –
CCAAAGCAAUAUUACGGAGC | -3.3 ± 0.15 | -2.69 ± 0.19
AGUUAGCAAUAUUACGUAUC | -3.63 ± 0.2 | -2.25 ± 0.18
AGAAAGCAAUAUUACGACCG | -0.595 ± 0.15 | 0.0491 ± 0.17
GGUUAGCAAUAUUACGUUAA | -2.32 ± 0.19 | -0.699 ± 0.16

Sequence | self-splicing fitness (ln) (30 °C) | self-splicing fitness (ln) (37 °C)
UAGCAGCAAUAUUACGUUUG | -1.29 ± 0.077 | -1.12 ± 0.11
UCGCAGCAAUAUUACGUCGC | -3.2 ± 0.37 | –
GCCAAGCAAUAUUACGGUUA | -0.632 ± 0.072 | -0.00086 ± 0.07
AGCCAGCAAUAUUACGGUCA | -0.0408 ± 0.09 | 0.4 ± 0.093
AUCGAGCAAUAUUACGGUAC | – | -2.51 ± 0.41
AUUUAGCAAUAUUACGGCUA | -0.795 ± 0.13 | 0.255 ± 0.12
CACGAGCAAUAUUACGUUGU | -3.37 ± 0.15 | -2.8 ± 0.18
ACUAAGCAAUAUUACGUUGA | -2.67 ± 0.12 | -1.92 ± 0.13
CCCCAGCAAUAUUACGACUG | -3.32 ± 0.11 | -2.97 ± 0.17
GCCCAGCAAUAUUACGACCC | -0.0226 ± 0.14 | -0.0967 ± 0.21
CAUGAGCAAUAUUACGUAGU | -5.58 ± 0.41 | -3.3 ± 0.19
UAUCAGCAAUAUUACGAGUA | -0.337 ± 0.079 | -0.301 ± 0.088
UGCUAGCAAUAUUACGCACG | -1.27 ± 0.12 | -1.18 ± 0.16
GUGCAGCAAUAUUACGGGGA | -4.16 ± 0.3 | -2.8 ± 0.23
UGGCAGCAAUAUUACGUGCG | -0.238 ± 0.061 | 0.163 ± 0.084
GGGCAGCAAUAUUACGGGCA | -2.14 ± 0.13 | -0.0115 ± 0.09
CAACAGCAAUAUUACGUUUC | -3.28 ± 0.14 | -2.33 ± 0.16
UUGUAGCAAUAUUACGAUUA | -0.945 ± 0.11 | -0.211 ± 0.1
UACGAGCAAUAUUACGUCUA | -0.512 ± 0.1 | -0.152 ± 0.11
